Data from the supplement of paper PMC10065799, “High-throughput profiling of sequence recognition by tyrosine kinases and SH2 domains using bacterial peptide display” (eLife, 2023).

Target: FGFR3 (UniProt P22607)
Assay: phosphorylation enrichment, bacterial display (enrichment ratio); higher = better substrate or ligand; peptides without Tyr show the background
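Note: 11-residue human phosphosite peptides and single-mutation variants displayed on the E. coli surface, counted by deep sequencing, each peptide's frequency after selection divided by its frequency in the unselected input library; frequency after pTyr selection over input frequency; kinase dosed for 20-30% of maximal phosphorylation in three min.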

Chain of FGFR3 (P22607 whole entry, looked up): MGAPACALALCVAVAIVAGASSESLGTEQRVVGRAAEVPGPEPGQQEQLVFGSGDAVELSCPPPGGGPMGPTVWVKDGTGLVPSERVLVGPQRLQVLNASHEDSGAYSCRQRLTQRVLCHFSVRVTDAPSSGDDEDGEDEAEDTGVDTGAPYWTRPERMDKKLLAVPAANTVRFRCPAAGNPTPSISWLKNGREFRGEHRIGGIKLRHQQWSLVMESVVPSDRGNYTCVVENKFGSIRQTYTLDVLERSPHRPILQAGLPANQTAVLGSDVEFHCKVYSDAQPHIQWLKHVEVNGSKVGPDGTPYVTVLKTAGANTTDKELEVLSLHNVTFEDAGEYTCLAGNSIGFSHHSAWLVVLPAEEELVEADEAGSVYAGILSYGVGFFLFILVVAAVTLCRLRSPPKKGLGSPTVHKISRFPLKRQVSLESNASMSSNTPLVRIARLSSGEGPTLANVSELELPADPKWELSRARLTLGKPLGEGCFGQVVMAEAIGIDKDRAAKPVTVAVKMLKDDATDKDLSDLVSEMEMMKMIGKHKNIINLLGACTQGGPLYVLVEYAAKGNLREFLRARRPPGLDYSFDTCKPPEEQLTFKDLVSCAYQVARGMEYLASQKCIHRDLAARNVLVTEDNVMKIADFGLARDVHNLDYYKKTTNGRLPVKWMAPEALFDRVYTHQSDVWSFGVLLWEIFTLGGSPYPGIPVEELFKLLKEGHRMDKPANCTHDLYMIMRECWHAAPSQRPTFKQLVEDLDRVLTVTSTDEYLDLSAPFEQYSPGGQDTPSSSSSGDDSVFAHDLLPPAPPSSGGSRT

Sequence | phosphorylation enrichment
MDDKEYFSVHN [MET_Y1234_Y1230D_YF] | 0.919
RNDLDYMDSRR [GAA_Y407_W402R] | 0.645
PELINCHQHNS [BTK_Y361_Y361C] | 0.7
KGVDRYNPENL [EIF3K_Y21_I18V] | 0.372
ANVIRYFPTQA [SLC25A4_Y81] | 0.492
STQAHYRLSAF [ADAMTS9_Y100_S96T] | 0.536
RIVEIYSRSLQ [GCH1_Y175_R178S] | 1.67
WQQQSYLFSGI [CTNNB1_Y30_D32Y_YF] | 0.57
DSKIRYLSADS [TTF1_Y476_E473K] | 0.546
DVFLKYLNFAT [PDE6B_Y212] | 0.826
GIVEEYQLPYY [BMPR1A_Y453] | 0.946
EVESPYEVHDF [GIGYF2_Y1168_YF] | 0.81
NYYDTCIKTCL [IQGAP2_Y1445_Y1445C] | 5.45
LWPIWYRCHRP [MRGPRX1_Y130] | 1.02
MKGDYYRYLAE [YWHAG_Y131] | 6.43
SGGCSYGSGGG [KRT1_Y539_G537C] | 0.561
EYGSGYPNDPK [RNASEH2A_Y210_D205E] | 0.474
FLLTVYSIFSK [SGCE_Y38] | 0.647
DNQFAYLKAII [HNF4A_Y288_E285Q_YF] | 0.702
IVAEFYDNLPH [DEGS1_Y284_A280V_YF] | 0.624
ENGPYYASYPP [GDAP2_Y488_T489A] | 2.01
ELAKFYKLHHI [AK7_Y391_N389K_YF] | 0.531
DRLAVYIDRVS [LMNA_Y45_R50S] | 0.638
LKLIQYHLIQQ [AKAP4_Y554_T557I] | 0.924
KGNMYYENSYA [EGFR_Y113_R108K] | 0.72
KTDKKYLMIKE [BAG3_Y451_E455K] | 0.526
YRQLPYCPSVE [CTNND2_Y508_Q507P] | 1.41
AAVLNYKAWRD [GRIN2A_Y737_G740W] | 0.462
RFLERDIFNRE [HLA-DPB1_Y57_Y57D_YF] | 1.1

Tested on: AncSZ
Assay: as above

Sequence | phosphorylation enrichment
MDDKEYFSVHN [MET_Y1234_Y1230D_YF] | 1.43
RNDLDYMDSRR [GAA_Y407_W402R] | 0.809
PELINCHQHNS [BTK_Y361_Y361C] | 0.938
KGVDRYNPENL [EIF3K_Y21_I18V] | 0.502
ANVIRYFPTQA [SLC25A4_Y81] | 0.78
STQAHYRLSAF [ADAMTS9_Y100_S96T] | 0.582
RIVEIYSRSLQ [GCH1_Y175_R178S] | 1.43
WQQQSYLFSGI [CTNNB1_Y30_D32Y_YF] | 0.977
DSKIRYLSADS [TTF1_Y476_E473K] | 0.503
DVFLKYLNFAT [PDE6B_Y212] | 1.23
GIVEEYQLPYY [BMPR1A_Y453] | 3
EVESPYEVHDF [GIGYF2_Y1168_YF] | 1.93
NYYDTCIKTCL [IQGAP2_Y1445_Y1445C] | 1.3
LWPIWYRCHRP [MRGPRX1_Y130] | 1.86
MKGDYYRYLAE [YWHAG_Y131] | 1.07
SGGCSYGSGGG [KRT1_Y539_G537C] | 0.803
EYGSGYPNDPK [RNASEH2A_Y210_D205E] | 0.697
FLLTVYSIFSK [SGCE_Y38] | 1.15
DNQFAYLKAII [HNF4A_Y288_E285Q_YF] | 1.16
IVAEFYDNLPH [DEGS1_Y284_A280V_YF] | 0.929
ENGPYYASYPP [GDAP2_Y488_T489A] | 1.09
ELAKFYKLHHI [AK7_Y391_N389K_YF] | 0.65
DRLAVYIDRVS [LMNA_Y45_R50S] | 0.881
LKLIQYHLIQQ [AKAP4_Y554_T557I] | 1.2
KGNMYYENSYA [EGFR_Y113_R108K] | 0.667
KTDKKYLMIKE [BAG3_Y451_E455K] | 0.64
YRQLPYCPSVE [CTNND2_Y508_Q507P] | 1.51
AAVLNYKAWRD [GRIN2A_Y737_G740W] | 0.839
RFLERDIFNRE [HLA-DPB1_Y57_Y57D_YF] | 1.17
